Source: publication doi:10.1101/2023.04.11.536350
Where “and” joins values, the source holds several entries; their conditions need not be identical. Equal values may be shown once.

What was measured:
[1] = target: ErCry4a C412A+C317A (European robin (Erithacus rubecula)); assay: native MS
[2] = target: European robin cryptochrome 4a, wild type, with N-terminal 10xHis-tag (European robin (Erithacus rubecula)); assay: native MS
[3] = target: European robin cryptochrome 4a, wild type, with N-terminal 10xHis-tag (European robin (Erithacus rubecula)); assay: native MS; remark: listed apart in the source
[4] = target: European robin cryptochrome 4a, wild type, with N-terminal 10xHis-tag (European robin (Erithacus rubecula)); assay: mass photometry
[5] = target: ErCry4a C317A (European robin (Erithacus rubecula)); assay: native MS
[6] = target: ErCry4a C412A (European robin (Erithacus rubecula)); assay: native MS

ErCry4a C412A+C317A (natural protein)
stoichiometry N [1]: 2 and 3

European robin cryptochrome 4a, wild type, with N-terminal 10xHis-tag (natural protein)
stoichiometry N [2]: 2
stoichiometry N [3]: 3
percent of counts in the dimer peak [4]: 11%
stoichiometry N [4]: 2

ErCry4a C317A (natural protein)
stoichiometry N [5]: 2 and 3

ErCry4a C412A (natural protein)
stoichiometry N [6]: 2 and 3
